Source: patent publication US20240083996A1, “COMPOSITION FOR PROPHYLAXIS OR TREATMENT OF IL-8 RELATED DISEASES” (Chugai Seiyaku Kabushiki Kaisha, priority 2016, published 2024)

Tested on: post-surgical adhesion
Assay: Post-surgical adhesion-induced monkey model
Format: in vivo, cynomolgus monkeys
Parameters: key: ○: Adhesion found; x: No adhesion
Conditions: 10 mg/kg i.v. one hour or less after surgery, laparoscopy 24 to 35 days later; individuals #201, #206
Experimental: To prepare a post-surgical adhesion-induced model, female cynomolgus monkeys 9 to 16 years of age (provided by the Tsukuba Primate Research Center at the National Institutes of Biomedical Innovation, Health and Nutrition) were treated under anesthesia as follows. Anesthesia was performed using balanced anesthesia of ketamine/xylazine (mixed at an adequate ratio of about 2:1) and isoflurane. An incision of 5 to 6 cm was made in the median line of the abdominal wall. After opening the abdomen, a 1-cm incision was made on the uterine corpus and sutured with 4 stitches using a single suture. Then, the whole uterus was brushed five times with gauze. Next, a 1-cm incision was made to the right abdominal wall peritoneal part at 2 cm from the incised median line of the abdominal wall and sutured by running suture with 4 stitches using an absorbable suture. After suture, the sutured part was brushed five times with gauze. Likewise, the peritoneum of left abdominal wall was incised, sutured, and brushed with gauze. Finally, the median line of abdominal wall was sutured by running suture with 10 to 11 stitches. The entire steps were completed in one hour or less. The antagonist Antisedan (in roughly the same amount as that of xylazine) and the antibiotic cephradine were administered at the time of awakening after surgery. Then, the pain reliever Zalban was administered for two days after surgery, and the monkeys were observed regularly every day to confirm the absence of post-surgical abnormalities. At laparoscopic observation, anesthesia and post-surgical monitoring were also performed in the same way.
The control group was untreated. 24 to 35 days after administration of the anti-IL-8 antibody, laparoscopy was performed to observe the adhesion formed due to incision, suture, and blushing with gauze. The abdomen was incised in the median line under anesthesia, and laparoscopic observation was performed by inserting a trocar and then introducing a laparoscope. The laparoscope was connected to a video system (KARL STORZ) and a monitor. The video system was used for recording, and the monitor was used for intraperitoneal observation. The size of the adhesion was measured using a graduated bar or graduated forceps. The presence, range, and location of adhesion were assessed during laparoscopic observation. […] Although adhesion was found in individual No. 206 in the anti-IL-8 antibody administration group, no adhesion was found in the right and left abdominal wall peritoneum or at the uterine incision site in individual No. 201. […] Those skilled in the art will naturally appreciate that anti-IL-8 antibodies may exert a stronger adhesion formation-preventive effect by appropriately altering the timing of administration or such. […]

B1: H1009/L395-F1974m: H1009-F1974m (SEQ ID NO:36) heavy chain, L395-kOMT light chain; the anti-IL-8 antibody of Table 29 (antibody)
heavy: QVQLVESGGGLVQPGGSLRLSCAASGFTFSDYYLSWVRQAPGKGLEWVGLIRNKDNYHTPEYSASVKGRFTISRDDSKNSLYLTMSDLKTEDTAVYYCARENHRYDVELAYWGQGTLVTVSSASTKGPSVFPLAPSSKSTSGGTAALGCLVKDYFPEPVTVSWNSGALTSGVHTFPAVLQSSGLYSLSSVVTVPSSSLGTQTYICNVNHKPSNTKVDKKVEPKSCDKTHTCPPCPAPELRRGPSVFLFPPKPKDTLMISRTPEVTCVVVDVSHEDPEVKFNWYVDGVEVHNAKTKPREEQYNSTYRVVSVLTVLHQDWLNGKEYKCKVSNKGLPSSIEKTISKAKGQPREPQVYTLPPSREEMTKNQVSLTCLVKGFYPSDIAVEWESNGQPENNYKTTPPVLDSDGSFFLYSKLTVDKSRWQQGNVFSCSVLHEALHAHTTRKELSLSP
light: DIQMTQSPSSLSASVGDRVTITCRASEIIYSYLAWYQQKPGKAPKLLIYKAKTHADGVPSRFSGSGSGTDFTFTISSLQPEDIATYYCKHHFGFPRTFGQGTKVEIKRTVAAPSVFIFPPSDEQLKSGTASVVCLLNNFYPREAKVQWKVDNALQSGNSQESVTEQDSKDSTYSLSSTLTLSKADYEKHKVYACEVTHQGLSSPVTKSFNRGEC
In the case of B1, the “adhesion at incision site: Abdominal wall Median line” value is reported as “○”, the “adhesion at incision site: Peritoneum (L)” value is reported as “○ and x” and the “adhesion at incision site: Peritoneum (R)” value is reported as “○ and x”. The “adhesion at incision site: Uterus” value was “○ and x”.
